# Measured values: patent US6319692
# System: phiFSW integrase (Int) (Lactobacillus casei temperate phage phiFSW)
# Test: cell_activity
Substance,"activity (transformants/ug DNA) (chromosomal attB as integration site, attB lost and attL/attR formed in all analysed transformants, in vivo, no direct binding measured)","activity (transformants/ug DNA) (pMSK742 integration into YIT9029 chromosome via attP x attB, no transformants when int region deleted, attL and attR confirmed by PCR, Southern and sequencing)"
attB (L. casei YIT9029),1000,–
attP (phiFSW),–,1000
